From patent US20190382503A1 (published 2019)

What was measured:
[1] = molecular target: T1, cynomolgus 5T4 on cells (cynomolgus macaque, UniProt Q4R8Y9 35-420); assay: flow cytometry, CHO-K1/cynomolgus 5T4 transfectants (FIG. 7)
T1 construct: whole, on cells; also called CHO-K1/cynomolgus 5T4
T1 sequence (looked up): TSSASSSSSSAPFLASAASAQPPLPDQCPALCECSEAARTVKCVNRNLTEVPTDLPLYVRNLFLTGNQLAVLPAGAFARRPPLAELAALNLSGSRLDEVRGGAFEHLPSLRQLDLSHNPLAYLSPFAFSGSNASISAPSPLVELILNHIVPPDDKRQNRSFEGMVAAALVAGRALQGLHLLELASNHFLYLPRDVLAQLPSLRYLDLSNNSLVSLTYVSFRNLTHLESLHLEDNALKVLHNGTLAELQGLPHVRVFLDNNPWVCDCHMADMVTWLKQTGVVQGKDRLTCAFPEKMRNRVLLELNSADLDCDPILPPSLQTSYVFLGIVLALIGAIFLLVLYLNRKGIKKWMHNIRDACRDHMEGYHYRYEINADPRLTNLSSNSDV
Description: (§1) Binding studies were performed by standard flow cytometry-based staining procedures two cell lines expressing 5T4:CHO-K1 cells (obtained from Alligator) transduced with human or cynomolgus macaque 5T4 and SKOV-3 human ovarian adenocarcinoma cells which express (human) 5T4. All labeling and washes were performed in U-bottom 96-well plates in saline buffer with 0.1% BSA and 2 mM EDTA. Cell were plated at approximately 100,000 cells per well and incubated with a range of 100 nM to 0.05 nM concentrations of test molecules in 50 μL volume/well, for 30 minutes on ice. Cells were washed three times then incubated for another 30 min on ice with fluorescently-labeled secondary polyclonal antibody, F(ab′)² goat anti-human IgG (Jackson ImmunoResearch Laboratories). The cells were then washed twice and the samples acquired in a BD LSRII or a Symphony A3 flow cytometer. The sample files were analyzed using FlowJo software; the mean fluorescence intensity (MFI-mean) or median fluorescence intensity (MFI-median) of the live population of cells in each well was calculated after gating on live cells (forward vs side scatter). Nonlinear regression analysis to determine EC₅₀ values was performed in GraphPad Prism 6® graphing and statistics software.

[2] = molecular target: T2, human 5T4 on cells (human, UniProt Q13641 32-420); assay: flow cytometry, CHO-K1/human 5T4 cells (FIG. 4)
T2 construct: Human 5T4 on transfected cells (CHO-K1, CT26, B16) or endogenous on human tumour lines; the cell line is named under assay; also called trophoblast glycoprotein; TPBG
T2 sequence: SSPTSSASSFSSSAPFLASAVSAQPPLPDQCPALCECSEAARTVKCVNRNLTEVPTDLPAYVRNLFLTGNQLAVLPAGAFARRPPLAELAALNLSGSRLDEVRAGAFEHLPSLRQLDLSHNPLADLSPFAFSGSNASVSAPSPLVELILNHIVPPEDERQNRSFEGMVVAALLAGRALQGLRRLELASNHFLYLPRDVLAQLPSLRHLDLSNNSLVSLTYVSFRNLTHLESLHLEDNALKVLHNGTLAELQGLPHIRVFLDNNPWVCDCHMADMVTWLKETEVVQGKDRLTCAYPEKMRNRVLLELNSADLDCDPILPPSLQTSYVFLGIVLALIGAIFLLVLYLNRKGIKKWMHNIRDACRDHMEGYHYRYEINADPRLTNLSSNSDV
Description: as §1
The differences in EC₅₀ values between constructs were more evident when binding assays were conducted on SKOV-3 cells. […]

B1: ALG.APV-191 (bispecific antibody)
chain: EVQLLESGGGLVQPGGSLRLSCAASGFTFDYGSMYWVRQAPGKGLEWVSSISSGSGSTYYADSVKGRFTISHDNSKNTLYLQMNSLRAEDTAVYYCARSSYYGSYYSIDYWGQGTLVTVSSGGGGSGGGGSGGGGSGGGGSDIQMTQSPSSLSASVGDRVTITCRASQSISSYLNWYQQKPGKAPKLLIYAASSLHSGVPSRFSGSGSGTDFTLTISSLQPEDFATYYCQQYYDNLPTFGQGTKLEIKSSEPKSSDKTHTCPPCPAPEAAGAPSVFLFPPKPKDTLMISRTPEVTCVVVDVSHEDPEVKFNWYVDGVEVHNAKTKPREEQYNSTYRVVSVLTVLHQDWLNGKEYKCAVSNKALPAPIEKTISKAKGQPREPQVYTLPPSRDELTKNQVSLTCLVKGFYPSDIAVEWESNGQPENNYKTTPPVLDSDGSFFLYSKLTVDKSRWQQGNVFSCSVMHEALHNHYTQKSLSLSPGSGGGGSGGGGSGGGGSPSEVQLLESGGGLVQPGGSLRLSCAASGFTFSSYAMSWVRQAPGKCLEWVSAISGSGGSTYYADSVKGRFTISRDNSKNTLYLQMNSLRAEDTAVYYCARYYGGYYSAWMDYWGQGTLVTVSSGGGGSGGGGSGGGGSGGGGSDIQMTQSPSSLSASVGDRVTITCRASQSISSFLNWYQQKPGKAPKLLIYAASSLQSGVPSRFSGSGSGTDFTLTISSLQPEDFATYYCQQTYGYLHTFGCGTKLEIKS
notes: scFv-Fc-scFv (ADAPTIR) homodimer
binding result [1]: binds
binding result [2]: binds
